Experimental data published in article PMC5014597.
Read-outs that look alike come from different tables or passages of the source.

Experiments:
[1] = biological target: TDP-43 C-terminal domain (residues 267-414) M337V (human) (UniProt Q13148)
[2] = biological target: TDP-43 C-terminal domain (residues 267-414), wild type (human) (UniProt Q13148); assay: 15N CPMG relaxation dispersion NMR
[3] = biological target: TDP-43 C-terminal domain (residues 267-414), wild type (human) (UniProt Q13148); assay: 15N CPMG relaxation dispersion NMR; remark: listed apart in the source

Row | Substance | decrease of turbidity of 20 µM CTD in 150 mM NaCl against wild type [1] [%] | kex (kon + koff, global exchange rate) [2] [s⁻¹] | koff [2] [s⁻¹] | kex (kon + koff, global exchange rate) [3] [s⁻¹] | koff [3] [s⁻¹]
1 | TDP-43 C-terminal domain (residues 267-414) M337V (from UniProt Q13148 267-414) (domain or fragment) | 50 | – | – | – | –
2 | TDP-43 C-terminal domain (residues 267-414), wild type (from UniProt Q13148 267-414) (domain or fragment) | – | 1200 | 1100 | 1000 | 970
